Each block holds one molecule with its values, some of them ahead of it.
Target: mouse alpha (2) macroglobulin receptor (mouse, UniProt Q91ZX7 20-4545)
Assay: cell-based or functional assay

Sequence of mouse alpha (2) macroglobulin receptor (Q91ZX7 other isoform, or with tags, fused parts or gaps limits assumed): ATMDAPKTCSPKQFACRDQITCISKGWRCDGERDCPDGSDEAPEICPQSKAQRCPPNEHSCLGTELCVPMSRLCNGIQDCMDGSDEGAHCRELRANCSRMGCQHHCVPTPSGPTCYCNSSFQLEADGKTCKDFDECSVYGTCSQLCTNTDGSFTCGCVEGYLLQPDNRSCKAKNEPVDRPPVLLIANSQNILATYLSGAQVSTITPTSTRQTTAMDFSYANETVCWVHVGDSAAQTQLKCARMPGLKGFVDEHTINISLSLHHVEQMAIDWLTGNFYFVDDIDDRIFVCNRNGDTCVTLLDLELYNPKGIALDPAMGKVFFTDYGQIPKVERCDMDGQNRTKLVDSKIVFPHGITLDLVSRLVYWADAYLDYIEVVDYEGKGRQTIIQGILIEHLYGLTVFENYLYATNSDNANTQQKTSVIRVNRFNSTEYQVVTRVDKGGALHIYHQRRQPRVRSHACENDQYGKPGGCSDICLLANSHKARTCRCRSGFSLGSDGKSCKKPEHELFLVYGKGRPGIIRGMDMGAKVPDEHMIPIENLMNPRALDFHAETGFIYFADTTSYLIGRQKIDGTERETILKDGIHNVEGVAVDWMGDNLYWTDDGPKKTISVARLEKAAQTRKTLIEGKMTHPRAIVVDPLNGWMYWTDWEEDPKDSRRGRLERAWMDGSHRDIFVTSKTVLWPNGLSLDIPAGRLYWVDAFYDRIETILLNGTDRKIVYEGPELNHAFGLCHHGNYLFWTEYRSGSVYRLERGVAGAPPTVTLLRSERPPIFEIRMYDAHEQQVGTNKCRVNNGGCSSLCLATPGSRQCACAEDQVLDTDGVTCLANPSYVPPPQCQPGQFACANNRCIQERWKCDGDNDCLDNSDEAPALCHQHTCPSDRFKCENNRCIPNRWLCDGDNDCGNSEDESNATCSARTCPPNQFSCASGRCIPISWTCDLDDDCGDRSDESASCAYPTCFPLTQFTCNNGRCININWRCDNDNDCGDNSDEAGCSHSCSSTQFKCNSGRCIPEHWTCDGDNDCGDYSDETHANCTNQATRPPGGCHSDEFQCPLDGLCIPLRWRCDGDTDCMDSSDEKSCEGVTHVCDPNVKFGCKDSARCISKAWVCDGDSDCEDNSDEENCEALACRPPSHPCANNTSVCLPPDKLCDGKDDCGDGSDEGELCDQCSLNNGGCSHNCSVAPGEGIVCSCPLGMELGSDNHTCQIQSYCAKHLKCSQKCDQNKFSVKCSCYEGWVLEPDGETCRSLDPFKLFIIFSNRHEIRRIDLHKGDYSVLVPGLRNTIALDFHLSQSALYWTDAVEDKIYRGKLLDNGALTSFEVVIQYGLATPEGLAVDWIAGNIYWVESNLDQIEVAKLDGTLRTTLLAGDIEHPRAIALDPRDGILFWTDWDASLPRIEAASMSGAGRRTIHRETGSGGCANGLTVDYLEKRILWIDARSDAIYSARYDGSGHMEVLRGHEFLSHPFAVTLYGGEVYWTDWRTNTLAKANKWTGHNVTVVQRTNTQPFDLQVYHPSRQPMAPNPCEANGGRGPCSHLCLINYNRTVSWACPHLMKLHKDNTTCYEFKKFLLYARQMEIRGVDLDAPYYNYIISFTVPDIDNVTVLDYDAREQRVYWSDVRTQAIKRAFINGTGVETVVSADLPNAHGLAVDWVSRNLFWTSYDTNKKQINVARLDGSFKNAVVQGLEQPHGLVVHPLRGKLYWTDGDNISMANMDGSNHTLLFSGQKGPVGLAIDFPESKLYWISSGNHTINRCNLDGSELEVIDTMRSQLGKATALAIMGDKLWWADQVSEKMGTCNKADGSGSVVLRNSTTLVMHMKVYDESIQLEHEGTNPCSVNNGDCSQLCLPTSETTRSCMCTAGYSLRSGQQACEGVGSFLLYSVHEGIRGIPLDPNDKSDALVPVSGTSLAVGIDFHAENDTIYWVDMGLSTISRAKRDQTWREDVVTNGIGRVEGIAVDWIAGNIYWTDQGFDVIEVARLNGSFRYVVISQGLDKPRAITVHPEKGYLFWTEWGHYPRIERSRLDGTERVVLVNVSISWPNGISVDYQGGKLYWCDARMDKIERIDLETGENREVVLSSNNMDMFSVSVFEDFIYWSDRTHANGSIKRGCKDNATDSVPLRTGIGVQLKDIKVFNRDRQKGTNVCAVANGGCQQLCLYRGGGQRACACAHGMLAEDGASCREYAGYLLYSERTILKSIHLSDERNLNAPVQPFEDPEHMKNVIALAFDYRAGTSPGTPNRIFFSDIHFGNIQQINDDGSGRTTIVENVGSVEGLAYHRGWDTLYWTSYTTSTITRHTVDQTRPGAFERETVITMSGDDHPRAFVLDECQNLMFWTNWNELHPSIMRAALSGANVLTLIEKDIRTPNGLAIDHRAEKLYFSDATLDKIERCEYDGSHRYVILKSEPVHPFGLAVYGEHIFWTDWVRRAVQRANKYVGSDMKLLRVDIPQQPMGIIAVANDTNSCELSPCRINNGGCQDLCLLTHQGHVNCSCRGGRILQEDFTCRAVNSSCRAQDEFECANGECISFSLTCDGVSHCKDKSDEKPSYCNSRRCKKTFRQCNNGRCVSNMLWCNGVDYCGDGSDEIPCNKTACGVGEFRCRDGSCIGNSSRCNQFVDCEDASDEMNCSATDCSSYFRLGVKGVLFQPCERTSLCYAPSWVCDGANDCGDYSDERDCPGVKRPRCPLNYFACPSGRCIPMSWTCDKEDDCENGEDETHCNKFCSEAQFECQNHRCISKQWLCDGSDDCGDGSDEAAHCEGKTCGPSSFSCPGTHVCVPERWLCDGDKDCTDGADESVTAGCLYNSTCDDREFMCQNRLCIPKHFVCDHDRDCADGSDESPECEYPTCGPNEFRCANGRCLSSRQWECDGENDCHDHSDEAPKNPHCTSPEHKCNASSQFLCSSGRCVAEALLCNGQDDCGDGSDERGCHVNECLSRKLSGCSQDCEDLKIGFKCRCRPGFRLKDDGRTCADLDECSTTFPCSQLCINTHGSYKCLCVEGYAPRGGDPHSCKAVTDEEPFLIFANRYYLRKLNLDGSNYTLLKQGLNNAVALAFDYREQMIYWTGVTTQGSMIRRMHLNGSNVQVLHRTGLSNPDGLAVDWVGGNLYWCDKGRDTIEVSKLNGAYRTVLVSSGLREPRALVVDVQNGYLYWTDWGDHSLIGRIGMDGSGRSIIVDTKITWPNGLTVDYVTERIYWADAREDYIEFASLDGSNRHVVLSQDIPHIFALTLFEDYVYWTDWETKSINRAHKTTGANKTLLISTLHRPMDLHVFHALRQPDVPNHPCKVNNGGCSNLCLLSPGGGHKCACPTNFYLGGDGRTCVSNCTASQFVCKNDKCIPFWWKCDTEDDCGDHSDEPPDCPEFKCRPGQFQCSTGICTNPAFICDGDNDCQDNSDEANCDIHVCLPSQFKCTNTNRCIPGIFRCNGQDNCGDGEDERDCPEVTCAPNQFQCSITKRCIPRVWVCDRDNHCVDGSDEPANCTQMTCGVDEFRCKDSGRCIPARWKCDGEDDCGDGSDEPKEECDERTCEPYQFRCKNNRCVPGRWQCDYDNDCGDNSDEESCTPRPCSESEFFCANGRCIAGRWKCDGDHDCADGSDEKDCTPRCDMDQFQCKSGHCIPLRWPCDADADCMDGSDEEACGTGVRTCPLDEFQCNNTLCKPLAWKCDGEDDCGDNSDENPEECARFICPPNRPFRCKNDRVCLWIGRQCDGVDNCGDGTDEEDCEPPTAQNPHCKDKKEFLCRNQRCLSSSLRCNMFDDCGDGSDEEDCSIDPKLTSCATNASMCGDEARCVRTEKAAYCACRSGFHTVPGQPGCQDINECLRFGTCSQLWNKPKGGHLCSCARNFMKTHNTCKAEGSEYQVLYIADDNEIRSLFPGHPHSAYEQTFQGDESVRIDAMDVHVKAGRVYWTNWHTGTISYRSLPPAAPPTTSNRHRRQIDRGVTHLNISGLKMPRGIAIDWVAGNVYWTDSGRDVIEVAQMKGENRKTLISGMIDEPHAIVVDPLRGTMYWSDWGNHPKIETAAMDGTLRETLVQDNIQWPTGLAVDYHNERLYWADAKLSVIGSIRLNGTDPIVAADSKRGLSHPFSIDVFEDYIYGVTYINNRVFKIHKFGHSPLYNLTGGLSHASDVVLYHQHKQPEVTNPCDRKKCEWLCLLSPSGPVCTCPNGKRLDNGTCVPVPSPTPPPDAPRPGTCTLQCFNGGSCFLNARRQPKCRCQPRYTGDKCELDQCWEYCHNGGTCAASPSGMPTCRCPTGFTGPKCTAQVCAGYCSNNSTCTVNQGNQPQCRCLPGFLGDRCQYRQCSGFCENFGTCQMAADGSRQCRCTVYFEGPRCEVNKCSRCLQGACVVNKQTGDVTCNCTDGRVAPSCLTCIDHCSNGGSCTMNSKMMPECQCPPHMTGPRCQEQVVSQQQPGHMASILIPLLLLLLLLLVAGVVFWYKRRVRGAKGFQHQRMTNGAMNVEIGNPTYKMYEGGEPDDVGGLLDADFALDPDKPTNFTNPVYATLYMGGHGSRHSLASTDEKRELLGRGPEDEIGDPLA

molar excess of free HSP required to inhibit by 50% the re-presentation of gp96-chaperoned peptides at a gp96 concentration of 40 µg/ml (RAW264.7 cells) (fold molar excess): 13
Molecule: heat shock protein hsp70 (ligand)

molar excess of free HSP required to inhibit by 50% the re-presentation of gp96-chaperoned peptides at a gp96 concentration of 40 µg/ml (RAW264.7 cells) (fold molar excess): 2
Molecule: heat shock protein hsp90 (ligand)

molar excess of free HSP required to inhibit by 50% the re-presentation of gp96-chaperoned peptides at a gp96 concentration of 40 µg/ml (RAW264.7 cells): ~6 fold molar excess
B1: heat shock protein gp96 (ligand, UniProt P08113 22-802, looked up)
chain: DDEVDVDGTVEEDLGKSREGSRTDDEVVQREEEAIQLDGLNASQIRELREKSEKFAFQAEVNRMMKLIINSLYKNKEIFLRELISNASDALDKIRLISLTDENALAGNEELTVKIKCDKEKNLLHVTDTGVGMTREELVKNLGTIAKSGTSEFLNKMTEAQEDGQSTSELIGQFGVGFYSAFLVADKVIVTSKHNNDTQHIWESDSNEFSVIADPRGNTLGRGTTITLVLKEEASDYLELDTIKNLVRKYSQFINFPIYVWSSKTETVEEPLEEDEAAKEEKEESDDEAAVEEEEEEKKPKTKKVEKTVWDWELMNDIKPIWQRPSKEVEEDEYKAFYKSFSKESDDPMAYIHFTAEGEVTFKSILFVPTSAPRGLFDEYGSKKSDYIKLYVRRVFITDDFHDMMPKYLNFVKGVVDSDDLPLNVSRETLQQHKLLKVIRKKLVRKTLDMIKKIADEKYNDTFWKEFGTNIKLGVIEDHSNRTRLAKLLRFQSSHHSTDITSLDQYVERMKEKQDKIYFMAGSSRKEAESSPFVERLLKKGYEVIYLTEPVDEYCIQALPEFDGKRFQNVAKEGVKFDESEKTKESREATEKEFEPLLNWMKDKALKDKIEKAVVSQRLTESPCALVASQYGWSGNMERIMKAQAYQTGKDISTNYYASQKKTFEINPRHPLIRDMLRRIKEDEDDKTVMDLAVVLFETATLRSGYLLPDTKAYGDRIERMLRLSLNIDPEAQVEEEPEEEPEDTSEDAEDSEQDEGEEMDAGTEEEEEETEKESTEKDEL
